Data: paper PMC3361065 (Biochemistry, 2012)

Experiments:
Assay in all cases: EMSA
[1] = biological target: T1, yeast mitochondrial RNA polymerase (scMtRNAP) WT (UniProt P13433 1-1351)
T1 sequence: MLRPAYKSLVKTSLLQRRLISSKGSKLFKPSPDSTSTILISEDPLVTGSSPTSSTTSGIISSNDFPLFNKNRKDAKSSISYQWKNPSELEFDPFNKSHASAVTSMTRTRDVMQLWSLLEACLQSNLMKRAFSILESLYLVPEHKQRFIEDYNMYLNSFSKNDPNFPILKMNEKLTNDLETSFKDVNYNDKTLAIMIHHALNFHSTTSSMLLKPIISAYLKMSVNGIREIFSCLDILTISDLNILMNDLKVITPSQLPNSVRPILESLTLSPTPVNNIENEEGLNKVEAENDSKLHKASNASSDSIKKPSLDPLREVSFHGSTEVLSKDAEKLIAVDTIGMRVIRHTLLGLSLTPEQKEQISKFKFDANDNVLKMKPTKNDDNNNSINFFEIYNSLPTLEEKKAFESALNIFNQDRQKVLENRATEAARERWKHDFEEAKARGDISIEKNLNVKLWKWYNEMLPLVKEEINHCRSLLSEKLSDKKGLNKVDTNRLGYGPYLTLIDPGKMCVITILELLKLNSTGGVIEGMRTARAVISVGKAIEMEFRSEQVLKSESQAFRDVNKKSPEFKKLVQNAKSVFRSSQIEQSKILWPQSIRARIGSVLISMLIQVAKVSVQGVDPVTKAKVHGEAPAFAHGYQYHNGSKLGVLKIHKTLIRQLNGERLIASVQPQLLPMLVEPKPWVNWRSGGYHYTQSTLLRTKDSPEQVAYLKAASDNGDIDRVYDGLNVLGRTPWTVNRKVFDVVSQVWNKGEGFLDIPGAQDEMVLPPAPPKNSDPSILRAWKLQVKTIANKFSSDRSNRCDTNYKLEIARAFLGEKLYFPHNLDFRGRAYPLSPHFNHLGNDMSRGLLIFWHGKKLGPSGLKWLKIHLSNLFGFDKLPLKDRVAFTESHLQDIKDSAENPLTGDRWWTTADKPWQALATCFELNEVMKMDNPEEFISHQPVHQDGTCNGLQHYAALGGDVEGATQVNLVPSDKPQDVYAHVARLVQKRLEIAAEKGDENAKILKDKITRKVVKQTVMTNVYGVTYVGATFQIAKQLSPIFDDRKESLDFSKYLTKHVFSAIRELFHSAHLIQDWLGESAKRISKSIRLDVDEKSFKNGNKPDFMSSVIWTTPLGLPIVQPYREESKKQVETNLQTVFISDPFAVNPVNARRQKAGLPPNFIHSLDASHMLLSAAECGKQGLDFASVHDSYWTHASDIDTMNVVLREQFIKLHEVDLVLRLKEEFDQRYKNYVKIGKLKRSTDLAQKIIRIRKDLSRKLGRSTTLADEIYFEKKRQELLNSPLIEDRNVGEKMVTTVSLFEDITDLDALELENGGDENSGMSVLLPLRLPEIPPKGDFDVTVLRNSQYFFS

[2] = biological target: scMtRNAP ΔHNG;MTF1 (yeast mitochondrial transcription factor) (Saccharomyces cerevisiae?;Saccharomyces …, UniProt P13433;P14908 1-640+644-1351;1-341, internal_change|)
[3] = biological target: scMtRNAP ΔNGS;MTF1 (yeast mitochondrial transcription factor) (Saccharomyces cerevisiae?;Saccharomyces …, UniProt P13433;P14908 1-641+645-1351;1-341, internal_change|)
scMtRNAP ΔNGS;MTF1 (yeast mitochondrial transcription factor), sequence (P14908 whole entry, stated change not applied, one chain of several): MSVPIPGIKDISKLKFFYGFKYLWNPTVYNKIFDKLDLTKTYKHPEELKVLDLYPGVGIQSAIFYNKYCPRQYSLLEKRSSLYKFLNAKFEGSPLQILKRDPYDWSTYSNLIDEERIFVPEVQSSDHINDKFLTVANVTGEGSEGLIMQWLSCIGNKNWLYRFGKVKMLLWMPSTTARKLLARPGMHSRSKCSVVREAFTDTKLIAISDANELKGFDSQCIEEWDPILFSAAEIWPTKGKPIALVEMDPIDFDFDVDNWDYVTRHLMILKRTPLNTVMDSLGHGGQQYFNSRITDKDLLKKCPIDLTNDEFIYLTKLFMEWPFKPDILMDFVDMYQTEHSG

[4] = biological target: yeast mitochondrial RNA polymerase (scMtRNAP) WT;MTF1 (yeast mitochondrial transcription factor) (Saccharomyces cerevisiae?;Saccharomyces …, UniProt P13433;P14908 1-1351;1-341, |)
scMtRNAP ΔHNG = biological target: T2, scMtRNAP ΔHNG (UniProt P13433 1-640+644-1351, internal_change)
T2 sequence: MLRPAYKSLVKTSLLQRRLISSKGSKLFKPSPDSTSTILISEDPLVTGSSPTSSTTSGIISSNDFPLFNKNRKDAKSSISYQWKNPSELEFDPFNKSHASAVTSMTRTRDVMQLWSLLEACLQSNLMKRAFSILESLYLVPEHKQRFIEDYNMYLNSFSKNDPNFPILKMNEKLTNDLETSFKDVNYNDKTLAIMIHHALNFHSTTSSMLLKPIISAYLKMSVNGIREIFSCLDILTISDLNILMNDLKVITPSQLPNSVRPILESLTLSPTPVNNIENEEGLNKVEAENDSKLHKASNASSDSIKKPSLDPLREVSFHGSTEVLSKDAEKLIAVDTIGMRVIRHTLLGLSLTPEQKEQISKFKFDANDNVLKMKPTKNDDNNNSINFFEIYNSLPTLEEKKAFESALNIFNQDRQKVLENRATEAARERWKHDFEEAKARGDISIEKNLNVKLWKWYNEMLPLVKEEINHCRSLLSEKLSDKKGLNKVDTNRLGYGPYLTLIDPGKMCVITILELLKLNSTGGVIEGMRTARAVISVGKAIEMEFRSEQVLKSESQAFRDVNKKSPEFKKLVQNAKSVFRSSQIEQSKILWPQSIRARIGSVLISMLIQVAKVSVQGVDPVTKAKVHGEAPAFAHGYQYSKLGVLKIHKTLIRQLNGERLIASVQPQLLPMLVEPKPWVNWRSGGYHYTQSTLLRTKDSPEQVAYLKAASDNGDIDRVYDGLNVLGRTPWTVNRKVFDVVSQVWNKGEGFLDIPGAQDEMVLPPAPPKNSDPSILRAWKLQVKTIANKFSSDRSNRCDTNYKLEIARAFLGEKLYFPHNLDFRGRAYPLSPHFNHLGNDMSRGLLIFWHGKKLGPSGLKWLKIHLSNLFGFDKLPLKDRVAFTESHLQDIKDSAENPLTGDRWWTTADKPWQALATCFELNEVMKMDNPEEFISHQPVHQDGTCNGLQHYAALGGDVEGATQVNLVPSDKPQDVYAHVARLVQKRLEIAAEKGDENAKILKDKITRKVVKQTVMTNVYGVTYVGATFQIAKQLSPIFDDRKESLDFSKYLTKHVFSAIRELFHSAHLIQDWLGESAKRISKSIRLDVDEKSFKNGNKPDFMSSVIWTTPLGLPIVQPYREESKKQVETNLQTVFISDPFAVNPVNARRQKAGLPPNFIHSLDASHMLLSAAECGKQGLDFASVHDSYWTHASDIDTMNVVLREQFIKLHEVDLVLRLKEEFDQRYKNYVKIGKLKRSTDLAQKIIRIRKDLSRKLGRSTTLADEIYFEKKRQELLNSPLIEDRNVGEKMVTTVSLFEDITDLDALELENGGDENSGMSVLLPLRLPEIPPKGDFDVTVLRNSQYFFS

B1: 33 bp Bubble (pre-melted) promoter (dsDNA)
DNA 1: CGCGTAAAACTATTCTTTATTACTTATATCGCG
DNA 2: CGCGATATGCAGCTTAAAGAATAGTTTTACGCG
How did the Kd [1] turn out when B1 was run?
The Kd was 4300 nM.

And the Kd [2]?
Its Kd is 340 nM.

And the Kd [3]?
The Kd was 430 nM.

What about the Kd [4] of the same binder?
Its Kd is 160 nM.

And the Kd (scMtRNAP ΔHNG)?
The Kd was 5300 nM.
